The target in experiment [1] is T1, EGF receptor on fixed A431 cells (Homo sapiens, UniProt P00533).
T1 construct: Confluent A43 1 cells were fixed in 96-well microtiter plates using 0.05% formaldehyde; endogenous in cells; host or cells: A431 cells, formaldehyde-fixed
Nature of the experiment: Receptor affinity: binding to fixed A431 cells. The following applies: 1 nM, 2 hr at 37° C. The protocol:
Confluent A43 1 cells were fixed in 96-well microtiter plates using 0.05% formaldehyde for 10 min at room temperature, then washed 3× with 200 μL PBS with 0.1% bovine serum albumin (BSA).
The wells were then washed 3× with 200 μL of PBS/0.1% BSA, detached, and counted in a gamma counter.

For experiment [2], the system named is Human foreskin fibroblasts. The experiment is described as follows: Mitogenicity: 3H-thymidine incorporation. The format is cell-based. The protocol:
Mitogenicity was assayed substantially following the method described by D. J. Knauer et al, J Biol Chem (1984) 259:5623-31.
Human foreskin fibroblasts were obtained and frozen at the thirteenth passage. Thawed cells are trypsinized, pelleted, and resuspended in a medium containing DMEM, 5% FBS, 1 mM sodium pyruvate, 300 μg/mL L-glutamine, 100 U/mL penicillin, and 100 μg/mL streptomycin. The cells are counted using a hemocytometer and 0.4% trypan blue. The cell concentration is adjusted to 1×10^-5 cells/mL using the same medium, and dispensed onto microtiter plates (100 μL/well). The plates are incubated for 5 days in a tissue culture incubator.
EGF muteins prepared in Example 1 and native sequence EGF are dissolved to make 100 μg/mL solutions. These solutions are used to make serial dilutions of 20, 10, 5, 2.5, 1.25, 0.625, 0.3125, 0.15625, 0.078125, 0.0390625, 0.0195, and 0.00975 ng/mL. Ten μL of each dilution is added to a microtiter plate well, and the plates returned to the incubator and incubated at 37° C. for 18 hours. […]
The well contents are then solubilized using 0.3 N NaOH (50 μL/well) for 30 minutes, and transferred to scintillation vials. Scintillation fluid (Ready-Solv EP, 4 mL) is then added to each vial, and the vials counted for 1 min with a 0-1,000 (^3 H) window in a Beckman LS3801 counter.
A general note: Dividing cells build labelled thymidine or BrdU into new DNA.

B1: .phi.EFG: EGF with N-terminal flag extension, additional sequence DWKDDDDK (protein)
chain: DWKDDDDKPQHWSCPEGTLAGNGNSTCVGPAPFLIFSHGNSIFRIDTEGTNYEQLVVDAGVSVIMDFHYNEKRIYWVDLERQLLQRVFLNGSRQERVCNIEKNVSGMAINWINEEVIWSNQQEGIITVTDMKGNNSHILLSALKYPANVAVDPVERFIFWSSEVAGSLYRADLDGVGVKALLETSEKITAVSLDVLDKRLFWIQYNREGSNSLICSCDYDGGSVHISKHPTQHNLFAMSLFGDRIFYSTWKMKTIWIANKHTGKDMVRINLHSSFVPLGELKVVHPLAQPKAEDDTWEPEQKLCKLRKGNCSSTVCGQDLQSHLCMCAEGYALSRDRKYCEDVNECAFWNHGCTLGCKNTPGSYYCTCPVGFVLLPDGKRCHQLVSCPRNVSECSHDCVLTSEGPLCFCPEGSVLERDGKTCSGCSSPDNGGCSQLCVPLSPVSWECDCFPGYDLQLDEKSCAASGPQPFLLFANSQDIRHMHFDGTDYGTLLSQQMGMVYALDHDPVENKIYFAHTALKWIERANMDGSQRERLIEEGVDVPEGLAVDWIGRRFYWTDRGKSLIGRSDLNGKRSKIITKENISQPRGIAVHPMAKRLFWTDTGINPRIESSSLQGLGRLVIASSDLIWPSGITIDFLTDKLYWCDAKQSVIEMANLDGSKRRRLTQNDVGHPFAVAVFEDYVWFSDWAMPSVMRVNKRTGKDRVRLQGSMLKPSSLVVVHPLAKPGADPCLYQNGGCEHICKKRLGTAWCSCREGFMKASDGKTCLALDGHQLLAGGEVDLKNQVTPLDILSKTRVSEDNITESQHMLVAEIMVSDQDDCAPVGCSMYARCISEGEDATCQCLKGFAGDGKLCSDIDECEMGVPVCPPASSKCINTEGGYVCRCSEGYQGDGIHCLDIDECQLGEHSCGENASCTNTEGGYTCMCAGRLSEPGLICPDSTPPPHLREDDHHYSVRNSDSECPLSHDGYCLHDGVCMYIEALDKYACNCVVGYIGERCQYRDLKWWELRHAGHGQQQKVIVVAVCVVVLVMLLLLSLWGAHYYRTQKLLSKNPKNPYEESSRDVRSRRPADTEDGMSSCPQPWFVVIKEHQDLKNGGQPVAGEDGQAADGSMQPTSWRQEPQLCGMGTEQGCWIPVSSDKGSCPQVMERSFHMPSYGTQTLEGGVEKPHSLLSANPLWQQRALDPPHQMELTQ
Regarding B1, in experiment [1], the Affinity is listed as 32 percentage of control (EGF). In experiment [2], the Mitogenicity is reported as 56 percentage of control (EGF).

Values taken from patent US5547935A (Chiron Corporation, priority 1994, dated 1996).
